Series [1] relates to T1, VEGF-165 (VEGF-A) (Homo sapiens).
T1 sequence: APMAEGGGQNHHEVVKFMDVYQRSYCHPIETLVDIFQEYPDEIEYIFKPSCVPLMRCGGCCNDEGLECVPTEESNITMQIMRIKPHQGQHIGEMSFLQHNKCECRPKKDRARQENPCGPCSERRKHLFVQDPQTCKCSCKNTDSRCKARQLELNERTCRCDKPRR
Briefly: flow. The note with it: 2'-F.

For series [2], the target named is T2, Angiopoietin-2 (Ang2) (Homo sapiens) (UniProt O15123).
T2 sequence: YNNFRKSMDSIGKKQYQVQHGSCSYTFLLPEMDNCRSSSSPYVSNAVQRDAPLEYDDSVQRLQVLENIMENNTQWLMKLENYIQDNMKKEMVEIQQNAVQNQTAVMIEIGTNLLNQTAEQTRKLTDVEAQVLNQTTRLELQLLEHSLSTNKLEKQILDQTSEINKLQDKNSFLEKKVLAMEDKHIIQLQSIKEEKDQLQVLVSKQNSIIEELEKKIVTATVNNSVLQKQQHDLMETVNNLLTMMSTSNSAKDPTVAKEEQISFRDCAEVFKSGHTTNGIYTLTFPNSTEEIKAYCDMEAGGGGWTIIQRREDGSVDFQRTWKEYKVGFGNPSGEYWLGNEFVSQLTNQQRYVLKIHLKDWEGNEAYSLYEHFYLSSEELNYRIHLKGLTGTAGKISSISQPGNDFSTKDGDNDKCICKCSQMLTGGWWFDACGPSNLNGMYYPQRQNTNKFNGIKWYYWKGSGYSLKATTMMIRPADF
Briefly: flow. The note with it: 2'-F.

The mark [3] stands for this setting: hexaethylene glycol (H) linker replacing UUUUA after UGCAUGCA
Where [4] appears, read: OO linker replacing UUUUA after UGCAUGCA
Setting [5] is: OOOO linker replacing UUUUA after UGCAUGCA
Where [6] appears, read: internal hexaethylene glycol (H) linker in Ang2 part.

The source of these data is US20230095004.

As a reminder, the Kd is the equilibrium constant for the complex coming apart.

For “UGCAUGCACCAGUGAGUCGGAUCUCCGCAUAGAUAAGCCAACAAACGUACAUUCUCUGUUAGUAUUUUCUGCG [AMSB107.22]”, the Kd in series [1] (setting [3]) was 0.055 nM; in series [2] (setting [3]), 0.098 nM.
With “UGCAUGCACCAGUGAGUCGGAUCUCCGCAUAGAUAAGCCAACAAACGUACAUUCUCUGUUAGUAUUUUCUGCG [AMSB107.26]”, the Kd in series [1] (setting [4]) was 0.056 nM; in series [2] (setting [4]), 0.076 nM.
As for “UGCAUGCACCAGUGAGUCGGAUCUCCGCAUAGAUAAGCCAACAAACGUACAUUCUCUGUUAGUAUUUUCUGCG [AMSB107.27]”, the dissociation constant Kd was 0.059 nM in series [1] (setting [5]) and 0.079 nM in series [2] (setting [5]).
Turning to “UGCAUGCAUUUUACCAGUGAGUCGGAUCUCCGCAUAGAUAAGCCAACAAACGUACAUUCUCUGUUAGUAUUUUCUGCG [AMSB107.23]”, the dissociation constant Kd in series [1] (5' hexaethylene glycol (H)) amounted to 0.049 nM; in series [2] (5' hexaethylene glycol (H)) it was 0.084 nM.
Consider “UGCAUGCAUUUUACCAGUGAGUCGGAUCUCCGCAUAGAUAAGCCAACAAACGUUCUCUGUUAGUAUUUUCUGCG [AMSB107.25]”, for which the equilibrium dissociation constant (Kd) in series [1] (setting [6]) is 0.224 nM; in series [2] (setting [6]), 1.41 nM.
Taken in the same sequence, the figures for “UGCAUGCAUUUUACCAGUGAGUCGGAUCUCCGCAUAGAUAAGCCAACAAAUUCUCUGUUAGUAUUUUCUGCG [AMSB107.24]” were 0.209 nM and 1.78 nM.
